# Literature values in patent US11820970B2, “High throughput protein-protein interaction screening in yeast liquid culture” (University of Washington, priority 2016, dated 2023).
# T1: BclB (Homo sapiens, UniProt Q9HD36)
# T1 sequence (Q9HD36 1-204): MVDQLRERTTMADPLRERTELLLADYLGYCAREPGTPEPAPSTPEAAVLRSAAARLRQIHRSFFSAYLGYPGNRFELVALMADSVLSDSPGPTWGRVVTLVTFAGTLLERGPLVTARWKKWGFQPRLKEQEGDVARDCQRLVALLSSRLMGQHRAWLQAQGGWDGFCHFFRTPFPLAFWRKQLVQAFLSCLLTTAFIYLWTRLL
# T2: BclW (Homo sapiens, UniProt Q92843)
# T2 sequence (Q92843 1-193): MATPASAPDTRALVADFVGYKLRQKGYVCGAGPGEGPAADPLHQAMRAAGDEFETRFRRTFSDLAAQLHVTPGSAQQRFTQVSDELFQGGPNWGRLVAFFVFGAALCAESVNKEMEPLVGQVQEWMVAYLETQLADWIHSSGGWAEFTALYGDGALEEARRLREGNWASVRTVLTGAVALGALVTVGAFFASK
# T3: Bfl1 (Homo sapiens, UniProt Q16548)
# T3 sequence (Q16548 1-175): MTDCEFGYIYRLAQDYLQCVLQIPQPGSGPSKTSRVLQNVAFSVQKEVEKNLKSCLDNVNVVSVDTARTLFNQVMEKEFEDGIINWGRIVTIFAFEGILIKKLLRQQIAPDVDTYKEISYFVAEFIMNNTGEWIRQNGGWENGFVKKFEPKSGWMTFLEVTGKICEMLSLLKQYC
# B1: B-CDP01: de novo (engineered) binding protein for Bcl2 family homologues, displayed as SAP (protein)
# chain: ADPKKVLDKAKDQAENRVRELKQELERLYKEARKLDLTQEMRRKLEWRYIAAMLKAIGDILNAIAQAENEADKLKKAGLVNSQQLDELRRRLEELAKEAARKAHDYGREFQLKLEY
# B2: X-CDP07: de novo (engineered) binding protein for Bcl2 family homologues, displayed as SAP (protein)
# chain: ADPKKVLDKAKDRAENVVRKLKKELEELYKEARKLDLTQEMRDRIRLAAIAARIAAFGDIFHAIMEALEEARKLKKAGLVNSQQLDELKRRLEELDEEAAQRAEKLGKEFELKLEY
# How the values were obtained:
# BclXL = BclXL (Homo sapiens, UniProt Q07817); conditions: binder vs BclXL; known affinities; read-out: AFFINITY
# Chain of BclXL (Q07817 whole entry, species assumed): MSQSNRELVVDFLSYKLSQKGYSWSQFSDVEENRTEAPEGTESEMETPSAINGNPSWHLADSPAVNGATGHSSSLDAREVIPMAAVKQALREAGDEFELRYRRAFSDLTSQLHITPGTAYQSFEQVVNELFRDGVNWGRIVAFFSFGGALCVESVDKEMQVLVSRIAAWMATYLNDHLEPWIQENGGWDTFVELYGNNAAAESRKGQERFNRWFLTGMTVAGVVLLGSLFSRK
# BclB = molecular target: T1, BclB; conditions: binder vs BclB; known affinities; read-out: AFFINITY
# Bcl2 = Bcl2 (Homo sapiens, UniProt P10415); conditions: binder vs Bcl2; known affinities; read-out: AFFINITY
# Chain of Bcl2 (P10415 whole entry, species assumed): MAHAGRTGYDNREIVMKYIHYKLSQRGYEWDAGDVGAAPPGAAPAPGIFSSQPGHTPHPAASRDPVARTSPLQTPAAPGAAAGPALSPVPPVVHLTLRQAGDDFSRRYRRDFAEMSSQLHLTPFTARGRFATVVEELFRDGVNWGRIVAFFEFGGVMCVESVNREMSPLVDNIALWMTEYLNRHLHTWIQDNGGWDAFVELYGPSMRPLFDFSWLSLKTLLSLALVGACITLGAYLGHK
# BclW = molecular target: T2, BclW; conditions: binder vs BclW; known affinities; read-out: AFFINITY
# Mcl1 = Mcl1 (Homo sapiens, UniProt Q07820); conditions: binder vs Mcl1; known affinities; read-out: AFFINITY
# Chain of Mcl1 (Q07820 whole entry, species assumed): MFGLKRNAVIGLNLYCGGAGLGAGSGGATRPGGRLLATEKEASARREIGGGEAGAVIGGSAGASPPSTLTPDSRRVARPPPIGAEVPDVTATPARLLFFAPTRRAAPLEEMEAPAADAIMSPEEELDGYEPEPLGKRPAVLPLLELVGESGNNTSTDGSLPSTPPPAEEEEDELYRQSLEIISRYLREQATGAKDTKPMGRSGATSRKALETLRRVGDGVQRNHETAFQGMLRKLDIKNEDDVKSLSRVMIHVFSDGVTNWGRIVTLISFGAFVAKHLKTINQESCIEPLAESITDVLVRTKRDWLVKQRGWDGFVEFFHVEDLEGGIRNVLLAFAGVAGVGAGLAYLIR
# Bfl1 = molecular target: T3, Bfl1; conditions: binder vs Bfl1; known affinities; read-out: AFFINITY
Molecule,Kd (BclXL) [nM],Kd (BclB) [nM],Kd (Bcl2) [nM],Kd (BclW) [nM],Kd (Mcl1) [nM],Kd (Bfl1) [nM]
B1,20.2,8.33,17.3,2010,0.46,518
B2,0.59,107,3.81,14.9,17.4,7050
